Source: article PMC5935710, “Structure and mechanism of the two-component α-helical pore-forming toxin YaxAB” (Nature Communications, 2018)

Tests used:
YaxA [1] = target: T1, YaxA (Y. enterocolitica, UniProt A1JM51 1-411); experiment: SEC; purified YaxA and YaxB mixed in solution; ratio of the two in the complex from SDS-PAGE band intensities; conditions: both partners purified
T1 construct: YaxA of Yersinia enterocolitica serovar 8, biovar 1 (ATCC 23715), ORF YE1984; 45.9 kDa; native mass spectrometry verified that the full-length protein was purified; the ORF was amplified from cDNA of ATCC 23715; The pore model 6EL1 holds YaxA residues 45-153 and 169-410; also called YaxA^WT; WT YaxA; not shown: His6, N-terminal, cleaved; SUMO, N-terminal, cleaved
T1 sequence: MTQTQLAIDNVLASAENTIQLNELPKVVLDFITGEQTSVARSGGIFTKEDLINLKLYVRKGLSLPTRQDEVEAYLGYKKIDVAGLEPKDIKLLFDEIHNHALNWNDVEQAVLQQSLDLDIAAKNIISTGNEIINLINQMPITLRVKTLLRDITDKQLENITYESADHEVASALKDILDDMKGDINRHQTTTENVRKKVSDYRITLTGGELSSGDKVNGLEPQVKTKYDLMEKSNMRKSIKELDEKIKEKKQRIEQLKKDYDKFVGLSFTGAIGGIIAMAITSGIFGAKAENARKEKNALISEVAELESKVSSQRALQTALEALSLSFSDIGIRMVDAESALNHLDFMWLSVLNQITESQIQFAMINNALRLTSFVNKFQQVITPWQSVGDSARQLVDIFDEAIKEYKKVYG

[2] = target: the molecule itself; experiment: cryo-EM structure; 1 mg each of YaxA and YaxB mixed at room temperature, Cymal-6 treated, Superose 6, exchanged into amphipol A8-35; 2 mg/mL; C10 symmetry imposed, 6.1 Å; a C9 class at 7.6 Å
YaxA [3] = target: T1, YaxA; experiment: negative-stain EM; YaxA, then YaxB (1.5-fold molar excess) on human erythrocyte ghosts; pores extracted with 1.5% Cymal-6, purified on Superose 6 and a 10-40% sucrose gradient; 0.1 mg/mL on grids, uranyl formate stain; conditions: both partners purified

B1: YaxB (natural protein)
chain: MAEISTFPHSGLSYPDINFKIFSQGVKNISHLAQFKTTGVEVLQEKALRVSLYSQRLDVIVRESLSSLQVKLENTLALTYFTTLEEIDEALISQDIDEESKSEMRKERINIIKNLSNDITQLKQLFIEKTELLDKSSSDLHNVVIIEGTDKVLQAEQLRQKQLTEDIATKELERKEIEKKRDKIIEALDVIREHNLVDAFKDLIPTGENLSELDLAKPEIELLKQSLEITKKLLGQFSEGLKYIDLTDARKKLDNQIDTASTRLTELNRQLEQSEKLIAGVNAVIKIDQEKSAVVVEAEKLSRAWHIFIHEITALQGTSLNEVELSKPLIKQQIYLESLIKQLI
notes: YaxB of Yersinia enterocolitica serovar 8, biovar 1 (ATCC 23715), ORF YE1985; 39.3 kDa; the ORF was cloned behind His6 and a TEV site; the ORF was amplified from cDNA of ATCC 23715; The pore model 6EL1 holds YaxB residues 12-343; also called YE1985; not shown: His6, N-terminal, cleaved
**Q.** How did the “stoichiometry N” value (YaxA [1]) turn out when B1 was run?
**A.** 1 YaxA:YaxB

**Q.** What about the “stoichiometry N” value [2] of the same binder?
**A.** 10

**Q.** What about the “radial spokes (YaxA–YaxB dimers) per complex” value (YaxA [3]) of the same binder?
**A.** 11 fold symmetry
